These results are taken from patent publication EP4772193A1 (Teijin Pharma Limited, dated 2026).

Read-outs that look alike come from different tables or passages of the source.

For assay [1], the target named is T1, recombinant human soluble gpNMB (recombinant human gpNMB-FLAG-His) (human, UniProt Q14956 23-498).
T1 sequence: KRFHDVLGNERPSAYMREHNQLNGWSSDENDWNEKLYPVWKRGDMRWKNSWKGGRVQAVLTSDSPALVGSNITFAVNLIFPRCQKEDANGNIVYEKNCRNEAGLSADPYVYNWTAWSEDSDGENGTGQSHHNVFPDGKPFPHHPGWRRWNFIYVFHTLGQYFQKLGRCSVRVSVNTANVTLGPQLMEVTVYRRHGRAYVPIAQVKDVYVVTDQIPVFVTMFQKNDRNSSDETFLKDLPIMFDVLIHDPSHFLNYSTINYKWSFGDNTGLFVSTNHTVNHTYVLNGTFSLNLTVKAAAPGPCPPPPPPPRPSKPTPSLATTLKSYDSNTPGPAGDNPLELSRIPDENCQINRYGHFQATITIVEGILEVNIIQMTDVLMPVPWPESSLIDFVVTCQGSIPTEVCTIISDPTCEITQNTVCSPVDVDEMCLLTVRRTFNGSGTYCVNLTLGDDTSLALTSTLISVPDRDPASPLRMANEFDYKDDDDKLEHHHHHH
The assay can be described thus: antigen ELISA.

Assay [2] deals with T1, recombinant human soluble gpNMB …. As to the kind of experiment: antigen ELISA, vs hGPN06-1_H1L1.
Assay [3] shares this target. The assay can be described thus: antigen ELISA. The source holds these as a separate data set.
Assay [4] shares this target. As to the kind of experiment: antigen ELISA. This is another data set of the same source.
Assay [5] has the same target. The assay can be described thus: antigen ELISA. The source holds these as a separate data set.
Assay [6] has the same target. As to the kind of experiment: SPR, antibody over captured gpNMB-FLAG-His, 1:1 model.
For assay [7] the target is unchanged. The assay can be described thus: antigen ELISA, vs hGPN06-1_H1L1. The source holds these as a separate data set.
Assay [8] has the same target. The assay can be described thus: antigen ELISA, vs hGPN06-1_H1L1. The source holds these as a separate data set.
For assay [9] the target is unchanged. As to the kind of experiment: antigen ELISA. This is another data set of the same source.
For assay [10] the target is unchanged. The assay can be described thus: antigen ELISA. This is another data set of the same source.
The target is the same in assay [11]. The assay can be described thus: antigen ELISA, vs hGPN18-2_H2L3.
For assay [12] the target is unchanged. The assay can be described thus: antigen ELISA, vs hGPN18-2_H2L3. The source holds these as a separate data set.
Assay [13] has the same target. The assay can be described thus: antigen ELISA. This is another data set of the same source.
Assay [14] has the same target. The assay can be described thus: antigen ELISA, vs hGPN18-2_H2L3. The source holds these as a separate data set.
Assay [15] has the same target. As to the kind of experiment: SPR, antibody 100 nM over captured gpNMB-FLAG-His, 36C.
Assay [16] shares this target. The assay can be described thus: antigen ELISA. The source holds these as a separate data set.
For assay [17], the target named is T2, human gpNMB (Human Osteoactivin, His-tag, AcroBioSystems) (human, UniProt Q14956-2 23-486, limits assumed).
T2 sequence (looked up): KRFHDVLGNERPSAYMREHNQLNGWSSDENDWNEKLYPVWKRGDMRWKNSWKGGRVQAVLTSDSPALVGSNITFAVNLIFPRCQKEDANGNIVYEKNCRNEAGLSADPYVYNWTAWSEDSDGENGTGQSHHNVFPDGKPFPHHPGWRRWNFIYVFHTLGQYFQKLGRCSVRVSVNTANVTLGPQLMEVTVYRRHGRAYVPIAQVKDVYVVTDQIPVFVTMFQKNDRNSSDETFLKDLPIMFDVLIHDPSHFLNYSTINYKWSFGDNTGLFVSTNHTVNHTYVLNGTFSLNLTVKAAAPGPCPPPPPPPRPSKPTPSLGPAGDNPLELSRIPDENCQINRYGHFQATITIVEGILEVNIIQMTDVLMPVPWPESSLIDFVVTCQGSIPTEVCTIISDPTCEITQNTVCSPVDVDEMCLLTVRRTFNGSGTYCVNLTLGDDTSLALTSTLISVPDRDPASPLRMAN
As to the kind of experiment: SPR Biacore 8K, antibody captured on protein A, gpNMB as analyte.

Assay [18] concerns the target T3, recombinant mouse soluble gpNMB (recombinant mouse gpNMB-FLAG-His) (mouse, UniProt Q99P91 23-502).
T3 sequence: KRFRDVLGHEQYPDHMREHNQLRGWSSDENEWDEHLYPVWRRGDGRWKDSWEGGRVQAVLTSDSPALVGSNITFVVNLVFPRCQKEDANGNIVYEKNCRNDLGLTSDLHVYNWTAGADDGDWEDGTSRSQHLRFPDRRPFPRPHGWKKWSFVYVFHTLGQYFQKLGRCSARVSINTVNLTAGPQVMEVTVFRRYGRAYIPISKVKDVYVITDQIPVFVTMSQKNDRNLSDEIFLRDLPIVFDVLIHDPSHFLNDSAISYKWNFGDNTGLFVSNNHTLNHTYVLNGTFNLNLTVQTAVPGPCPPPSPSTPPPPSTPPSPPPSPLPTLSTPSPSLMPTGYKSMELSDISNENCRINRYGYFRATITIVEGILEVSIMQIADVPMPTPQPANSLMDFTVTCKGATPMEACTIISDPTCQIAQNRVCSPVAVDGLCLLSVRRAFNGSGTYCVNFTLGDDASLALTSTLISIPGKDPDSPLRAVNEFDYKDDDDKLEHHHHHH
As to the kind of experiment: SPR single-cycle kinetics, antibody over captured gpNMB-FLAG-His, 36C, mean of 2.

For assay [19], the target named is T1, recombinant human soluble gpNMB …. The description is as above.

B1: hGPN06-1_H1L1 (antibody, V domains shown)
VH: QVQLVQSGAEVKKPGASVKVSCKASGYTFTDNWMGWVKQRPGQGLEWIGAIDPSDSFTNYNQNFKGRVTMTVDTSISTAYMELSRLRSDDSAVYFCTRSGYYGSPKLGGDYWGQGTLVTVSS
VL: EIVLTQSPSSLSASVGDRVTITCSASSSISYMHWYQQKSGTAPKLLIYSTSNLASGVPSRFSGSGSGTDFTFTISSLQPEDAATYYCHQWNSYPCTFGGGTKLEIK
notes: humanized; also called humanized anti-gpNMB antibody H1L1
Consider B1, for which the EC50 in [1] came out at 1.98 nM; in assay [3] it was 1.98 nM; in assay [4] it was 1.98 nM; in assay [5] it was 0.575 nM. The Relative binding activity in assay [2], in [7] and in assay [8] was 1 in each case. In addition, in assay [6], the Kd was 0.62 nM. Moreover, the koff in assay [6] worked out at 0.000567 s⁻¹. Also, the association rate constant (kon) in assay [6] came out at 916000 M⁻¹ s⁻¹.

B2: hGPN18-2_H2L3 (antibody, V domains shown)
VH: QVQLVQSGPGLVQPTQTLTLTCSFSGFSLSTSVMGVGWIRQPSGKGLEWLADIWWDDDKDYNPSLKSRLTISKDTSKNQVVLTMTNMDTVDTATYYCARTYYSNYEYYGMDYWGQGTLVTVSS
VL: DIVMTQSPDSLAVSLGERATINCRSSQTIILSNGNTYLEWYQQKPGQPPKLLIYKVSNRFSGVPDRFSGSGSGTDFTLTISSLQAEDVAVYYCFQGSHVPFTFGSGTKLEIKR
notes: humanized; also called humanized anti-gpNMB antibody H2L3
Regarding B2, the EC50 in [9] worked out at 1.84 nM; in assay [10], 4.39 nM; in [13], 4.39 nM; in assay [16], 4.39 nM. In addition, the Relative binding activity in [11], in assay [12] and in [14] was 1 in each case. Besides, the Kd in assay [15] came to 0.00778 nM. The off-rate (koff) in assay [15] amounted to 7.49e-07 s⁻¹. In assay [15], the kon was 96200 M⁻¹ s⁻¹.

B3: hGPN18-2_H0L0 (antibody, V domains shown)
VH: QVTLKESGPGILQPSQTLSLTCSFSGFSLSTSVMGVGWIRQPSGKGLEWLADIWWDDDKDYNPSLKSRLTISKDTSKNQVFLKIASVDTADTATYYCARTYYSNYEYYGMDYWGQGTSVTVSS
VL: DVLMTQTPLSLPVSLGDQASISCRSSQTIILSNGNTYLEWYLQKPGQSPKLLIYKVSNRFSGVPDRFSGSGSGTDFTLKISRVEAEDLGVYYCFQGSHVPFTFGSGTKLEIK
notes: human chimeric antibody: mouse GPN18-2 variable regions; also called human chimeric antibody of GPN18-2
On to B3, for which the EC50 in assay [9] was found to be 1.21 nM. In assay [15], the Kd turned out to be 0.00346 nM, the off-rate constant (koff) is 4.71e-07 s⁻¹ and the kon was 141000 M⁻¹ s⁻¹.

B4: hGPN18-5_H3L3 (antibody, V domains shown)
VH: QVQLVQSGAEVKKPGASVKVSCKASGYTFTTYWMNWVRQAPGQGLEWIGAINPSNDYTEYNQKFKDRAIMTADKSTSTVYMELSSLRSEDTAVYYCGRSYSPDYWGQGTTVTVSS
VL: DIQMTQSPSSLSASVGDRVTITCKASQNVDNHVAWHQQKPGKAPKALIYSASYRYSGVPDRFTGSGSGTDFTLTISSLQPEDFADYFCQQYKSYPFTFGGGTKLEIK
notes: humanized; also called hGPN18-5_VH3+VL3
Take B4: the values for the Kd in assay [17], in [18] and in assay [19] were 352 nM, 6.39 nM and 6.98 nM, respectively. Moreover, the koff came to 0.00201 s⁻¹ in assay [17], 0.000711 s⁻¹ in assay [18] and 0.00121 s⁻¹ in [19]. Also, the kon came out at 5720 M⁻¹ s⁻¹ in assay [17], 111000 M⁻¹ s⁻¹ in assay [18] and 176000 M⁻¹ s⁻¹ in [19].

B5: hGPN06-1_H0L0 (antibody, V domains shown)
VH: QVQLQQPGAEIVRPGASVKLSCKASGYTFTDNWMGWVKQRPGQGLEWIGAIDPSDSFTNYNQNFKGKATLTVDTSSSTAYMQLSSLTSEDSAVYFCTRSGYYGSPKLGGDYWGQGTTLTVSS
VL: QIVLTQSPAIMSASLGEEITLTCSASSSISYMHWYQQKSGTSPKLLIYSTSNLASGVPSRFSGSGSGTFYSLTISSVEAEDAADYYCHQWNSYPCTFGGGTKLEIK
notes: human chimeric antibody: mouse GPN06-1 variable regions (VH0, VL0); also called human chimeric antibody of GPN06-1
Take B5: in assay [5], the EC50 was 0.383 nM. In assay [6], the Kd amounted to 0.265 nM, the koff is 0.000209 s⁻¹ and the kon came out at 789000 M⁻¹ s⁻¹.
